Biological target: methyltransferase domain of Mettl3 (MTD3, residues 357-580) (human, UniProt Q86U44 357-580)
Assay: SEC-MALS

methyltransferase domain of Mettl3 (MTD3, residues 357-580), sequence (Q86U44 357-580): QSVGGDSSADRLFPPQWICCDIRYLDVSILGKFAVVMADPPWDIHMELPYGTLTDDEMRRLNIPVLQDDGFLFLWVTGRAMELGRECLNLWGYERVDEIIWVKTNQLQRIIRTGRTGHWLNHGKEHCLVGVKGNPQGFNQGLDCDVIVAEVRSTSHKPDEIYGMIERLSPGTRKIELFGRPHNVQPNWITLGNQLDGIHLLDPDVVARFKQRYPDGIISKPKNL

B1: methyltransferase domain of Mettl14 (MTD14, residues 111-456) (domain or fragment, human, UniProt Q9HCE5 111-456, looked up)
chain: QSLNPHNDYCQHFVDTGHRPQNFIRDVGLADRFEEYPKLRELIRLKDELIAKSNTPPMYLQADIEAFDIRELTPKFDVILLEPPLEEYYRETGITANEKCWTWDDIMKLEIDEIAAPRSFIFLWCGSGEGLDLGRVCLRKWGYRRCEDICWIKTNKNNPGKTKTLDPKAVFQRTKEHCLMGIKGTVKRSTDGDFIHANVDIDLIITEEPEIGNIEKPVEIFHIIEHFCLGRRRLHLFGRDSTIRPGWLTVGPTLTNSNYNAETYASYFSAPNSYLTGCTEEIERLRPKSPPPKSKSDRGGGAPRGGGRGGTSAGRGRERNRSNFRGERGGFRGGRGGAHRGGFPPR
stoichiometry N: 1

Reference: paper PMC4958592 (Molecular cell, 2016)
